Data taken from patent US20250171379A1 (Janssen / Centocor, published 2025).

Each binder was assayed against T1, human prostate-specific membrane antigen (PSMA) (human, UniProt Q04609 1-750) (assay: flow cytometry on C4-2B cells (PSMA+), AlexaFluor647 anti-human IgG secondary, MFI curve fit; parental in the random azide series).
T1 construct: whole, on cells; also called PSMA+ C4-2B cells
Protocol: (§1) Cell binding of azide-modified antibodies, DOTA-DBCO-azide modified antibodies, and DFO-DBCO-azide modified antibodies was compared to the parental mAbs for the conjugates described in Table 1. Cell lines expressing the mAb target were treated with antibody or conjugate in a range of a concentrations, and binding was measured by flow cytometry. […] Anti-PSMA mAb was evaluated for binding to PSMA+C4-2b cells.
(§2) Flow Cytometry: Cells were detached from flask using enzyme free cell dissociation buffer (Gibco, Waltham, MA) and strained through a 40 μm filter (Falcon). 5×10⁴ cells were seeded per well in a 96-well u-bottom plate. Cells were incubated with conjugated antibody or parental antibody diluted in BSA stain buffer (BD Bioscience, San Jose, CA) for 1 hr at 4° C. Cells were washed twice with stain buffer. […] Cells were washed twice with stain buffer then resuspended in a final volume of 25 μL/well in stain buffer and read on the iQue® Screener flow cytometer (Intellicyt®). […] Live cells were determined by excluding events with high nucleic acid stain. Mean fluorescence intensity (MFI) was determined on live cells and graphed in GraphPad® Prism 7 (GraphPad® Software) as log of antibody concentration vs. MFI. A non-linear regression curve fit was added to data and EC₅₀ values were calculated.

T1 sequence (Q04609 whole entry): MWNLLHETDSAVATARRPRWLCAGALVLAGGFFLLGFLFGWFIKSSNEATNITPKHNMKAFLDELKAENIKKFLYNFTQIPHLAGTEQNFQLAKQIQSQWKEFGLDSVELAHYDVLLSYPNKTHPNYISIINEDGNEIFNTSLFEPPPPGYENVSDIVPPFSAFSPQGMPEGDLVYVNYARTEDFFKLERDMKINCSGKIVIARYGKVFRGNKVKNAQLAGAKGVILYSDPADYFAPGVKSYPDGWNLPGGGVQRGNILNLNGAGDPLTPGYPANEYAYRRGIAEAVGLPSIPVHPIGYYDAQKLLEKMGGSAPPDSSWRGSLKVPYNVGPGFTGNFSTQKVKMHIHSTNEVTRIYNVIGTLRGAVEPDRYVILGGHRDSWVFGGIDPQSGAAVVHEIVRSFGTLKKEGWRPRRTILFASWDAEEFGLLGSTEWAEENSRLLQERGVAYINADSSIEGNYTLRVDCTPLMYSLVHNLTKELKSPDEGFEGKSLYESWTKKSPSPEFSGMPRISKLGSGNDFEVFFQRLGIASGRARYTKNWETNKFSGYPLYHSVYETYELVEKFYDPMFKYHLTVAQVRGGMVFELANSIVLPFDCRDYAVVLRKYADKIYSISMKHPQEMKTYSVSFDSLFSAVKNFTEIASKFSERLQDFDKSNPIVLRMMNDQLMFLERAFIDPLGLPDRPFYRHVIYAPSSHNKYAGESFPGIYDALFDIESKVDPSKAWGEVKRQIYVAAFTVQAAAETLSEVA

Row | EC50 [nM] | Binder
1 | 5.5 | anti-PSMA mAb PSMB127 (antibody, human IgG4 S228P, kappa, F234A L235A, V domains shown, Parental, unmodified human IgG4 antibody) VH: EVQLLESGGGLVQPGGSLRLSCAASGFTFKSDAMHWVRQAPGKGLEWVSEISGSGGYTNYADSVKGRFTISRDNSKNTLYLQMNSLRAEDTAVYYCARDSYDSSLYVGDYFDYWGQGTLVTVSS VL: EIVLTQSPATLSLSPGERATLSCRASQSVSSYLAWYQQKPGQAPRLLIYDASNRATGIPARFSGSGSGTDFTLTISSLEPEDFAVYYCQQRSNWPLTFGQGTKVEIKR

What follows are binders tested against T1, human prostate-specific membrane … (assay: flow cytometry on C4-2B cells (PSMA+), AlexaFluor647 anti-human IgG secondary, MFI curve fit; parental in the MTG series).
Protocol: as §1, §2

Row | EC50 [nM] | Binder
2 | 4.1 | anti-PSMA mAb PSMB127 (antibody, human IgG4 S228P, kappa, F234A L235A, V domains shown, Parental, unmodified human IgG4 antibody) VH: EVQLLESGGGLVQPGGSLRLSCAASGFTFKSDAMHWVRQAPGKGLEWVSEISGSGGYTNYADSVKGRFTISRDNSKNTLYLQMNSLRAEDTAVYYCARDSYDSSLYVGDYFDYWGQGTLVTVSS VL: EIVLTQSPATLSLSPGERATLSCRASQSVSSYLAWYQQKPGQAPRLLIYDASNRATGIPARFSGSGSGTDFTLTISSLEPEDFAVYYCQQRSNWPLTFGQGTKVEIKR

These binders were tested against T1, human prostate-specific membrane … (assay: flow cytometry on C4-2B cells (PSMA+), AlexaFluor647 anti-human IgG secondary, MFI curve fit; parental in the glycan series).
Protocol: as §1, §2

Row | EC50 [nM] | Binder
3 | 0.7 | anti-PSMA mAb PSMB127 (antibody, human IgG4 S228P, kappa, F234A L235A, V domains shown, Parental, unmodified human IgG4 antibody) VH: EVQLLESGGGLVQPGGSLRLSCAASGFTFKSDAMHWVRQAPGKGLEWVSEISGSGGYTNYADSVKGRFTISRDNSKNTLYLQMNSLRAEDTAVYYCARDSYDSSLYVGDYFDYWGQGTLVTVSS VL: EIVLTQSPATLSLSPGERATLSCRASQSVSSYLAWYQQKPGQAPRLLIYDASNRATGIPARFSGSGSGTDFTLTISSLEPEDFAVYYCQQRSNWPLTFGQGTKVEIKR

Each binder was assayed against T1, human prostate-specific membrane … (assay: flow cytometry on C4-2B cells (PSMA+), AlexaFluor647 anti-human IgG secondary, MFI curve fit).
Protocol: as §1
Flow Cytometry: Cells were detached from flask using enzyme free cell dissociation buffer (Gibco, Waltham, MA) and strained through a 40 μm filter (Falcon). 5×10⁴ cells were seeded per well in a 96-well u-bottom plate. Cells were incubated with conjugated antibody or parental antibody diluted in BSA stain buffer (BD Bioscience, San Jose, CA) for 1 hr at 4° C. Cells were washed twice with stain buffer. Cells were then incubated in the dark for 30 min at 4° C. with AlexaFluor647 tagged anti-human IgG secondary antibody (Jackson ImmunoResearch Laboratories). Secondary antibodies were diluted 1:200 in stain buffer containing 3% donkey serum (Rockland Immunochemicals). For the last 10 minutes of the incubation SYTOX® Green Nucleic Acid Stain (ThermoFisher) was added to cells at a final concentration of 30 nM. Cells were washed twice with stain buffer then resuspended in a final volume of 25 μL/well in stain buffer and read on the iQue® Screener flow cytometer (Intellicyt®). ForeCyt® software was used to analyze data. Live cells were determined by excluding events with high nucleic acid stain. Mean fluorescence intensity (MFI) was determined on live cells and graphed in GraphPad® Prism 7 (GraphPad® Software) as log of antibody concentration vs. MFI. A non-linear regression curve fit was added to data and EC₅₀ values were calculated.

Row | Binder | EC50 [nM]
4 | anti-PSMA mAb-azide (random azide) (antibody, human IgG4 S228P, kappa, F234A L235A, V domains shown, random conjugation of NHS-PEG4-azide to amines of the antibody, CAR 2.4, Human IgG4; sites of modification random, not located; also called anti-PSMA mAb (random azide) mAb-azide) VH: EVQLLESGGGLVQPGGSLRLSCAASGFTFKSDAMHWVRQAPGKGLEWVSEISGSGGYTNYADSVKGRFTISRDNSKNTLYLQMNSLRAEDTAVYYCARDSYDSSLYVGDYFDYWGQGTLVTVSS VL: EIVLTQSPATLSLSPGERATLSCRASQSVSSYLAWYQQKPGQAPRLLIYDASNRATGIPARFSGSGSGTDFTLTISSLEPEDFAVYYCQQRSNWPLTFGQGTKVEIKR | 4.7
5 | anti-PSMA mAb-DOTA (site specific MTG azide clicked with DOTA-GA-DBCO) (antibody, human IgG4 S228P, kappa, F234A L235A, V domains shown, deglycosylated with PNGase F; 3-azido propylamine at Gln295 by microbial transglutaminase, clicked with unchelated DOTA-GA-DBCO; CAR 2, Human IgG4; also called anti-PSMA mAb (MTG) mAb-DOTA) VH: EVQLLESGGGLVQPGGSLRLSCAASGFTFKSDAMHWVRQAPGKGLEWVSEISGSGGYTNYADSVKGRFTISRDNSKNTLYLQMNSLRAEDTAVYYCARDSYDSSLYVGDYFDYWGQGTLVTVSS VL: EIVLTQSPATLSLSPGERATLSCRASQSVSSYLAWYQQKPGQAPRLLIYDASNRATGIPARFSGSGSGTDFTLTISSLEPEDFAVYYCQQRSNWPLTFGQGTKVEIKR | 6.7
6 | anti-PSMA mAb-DFO (random azide clicked with DFO-DBCO) (antibody, human IgG4 S228P, kappa, F234A L235A, V domains shown, random NHS-PEG4-azide on amines, clicked with unchelated DFO-DBCO, CAR 2.4, Human IgG4; also called anti-PSMA mAb (random azide) mAb-DFO) VH: EVQLLESGGGLVQPGGSLRLSCAASGFTFKSDAMHWVRQAPGKGLEWVSEISGSGGYTNYADSVKGRFTISRDNSKNTLYLQMNSLRAEDTAVYYCARDSYDSSLYVGDYFDYWGQGTLVTVSS VL: EIVLTQSPATLSLSPGERATLSCRASQSVSSYLAWYQQKPGQAPRLLIYDASNRATGIPARFSGSGSGTDFTLTISSLEPEDFAVYYCQQRSNWPLTFGQGTKVEIKR | 4.6
7 | anti-PSMA mAb-azide (site specific MTG) (antibody, human IgG4 S228P, kappa, F234A L235A, V domains shown, deglycosylated with PNGase F; 3-azido propylamine at Gln295 by microbial transglutaminase; CAR 2, Human IgG4; also called anti-PSMA mAb (MTG) mAb-azide) VH: EVQLLESGGGLVQPGGSLRLSCAASGFTFKSDAMHWVRQAPGKGLEWVSEISGSGGYTNYADSVKGRFTISRDNSKNTLYLQMNSLRAEDTAVYYCARDSYDSSLYVGDYFDYWGQGTLVTVSS VL: EIVLTQSPATLSLSPGERATLSCRASQSVSSYLAWYQQKPGQAPRLLIYDASNRATGIPARFSGSGSGTDFTLTISSLEPEDFAVYYCQQRSNWPLTFGQGTKVEIKR | 5
8 | anti-PSMA mAb-DOTA (random azide clicked with DOTA-GA-DBCO) (antibody, human IgG4 S228P, kappa, F234A L235A, V domains shown, random NHS-PEG4-azide on amines, clicked with unchelated DOTA-GA-DBCO, CAR 2.4, Human IgG4; also called anti-PSMA mAb (random azide) mAb-DOTA) VH: EVQLLESGGGLVQPGGSLRLSCAASGFTFKSDAMHWVRQAPGKGLEWVSEISGSGGYTNYADSVKGRFTISRDNSKNTLYLQMNSLRAEDTAVYYCARDSYDSSLYVGDYFDYWGQGTLVTVSS VL: EIVLTQSPATLSLSPGERATLSCRASQSVSSYLAWYQQKPGQAPRLLIYDASNRATGIPARFSGSGSGTDFTLTISSLEPEDFAVYYCQQRSNWPLTFGQGTKVEIKR | 5.4

Next, values leading:

Row | EC50 [nM] | Binder
9 | 0.5 | anti-PSMA mAb-azide (site specific glycan) (antibody, human IgG4 S228P, kappa, F234A L235A, V domains shown, Fc glycan trimmed with GlycINATOR to the innermost GlcNAc, GalNAz azido sugar added with GalT; CAR exactly 2, Human IgG4; also called anti-PSMA mAb (glycan) mAb-azide) VH: EVQLLESGGGLVQPGGSLRLSCAASGFTFKSDAMHWVRQAPGKGLEWVSEISGSGGYTNYADSVKGRFTISRDNSKNTLYLQMNSLRAEDTAVYYCARDSYDSSLYVGDYFDYWGQGTLVTVSS VL: EIVLTQSPATLSLSPGERATLSCRASQSVSSYLAWYQQKPGQAPRLLIYDASNRATGIPARFSGSGSGTDFTLTISSLEPEDFAVYYCQQRSNWPLTFGQGTKVEIKR
10 | 0.7 | anti-PSMA mAb-DOTA (site specific glycan azide clicked with DOTA-GA-DBCO) (antibody, human IgG4 S228P, kappa, F234A L235A, V domains shown, Fc glycan trimmed to the innermost GlcNAc, GalNAz azido sugar added, clicked with unchelated DOTA-GA-DBCO; CAR 2, Human IgG4; also called anti-PSMA mAb (glycan) mAb-DOTA) VH: EVQLLESGGGLVQPGGSLRLSCAASGFTFKSDAMHWVRQAPGKGLEWVSEISGSGGYTNYADSVKGRFTISRDNSKNTLYLQMNSLRAEDTAVYYCARDSYDSSLYVGDYFDYWGQGTLVTVSS VL: EIVLTQSPATLSLSPGERATLSCRASQSVSSYLAWYQQKPGQAPRLLIYDASNRATGIPARFSGSGSGTDFTLTISSLEPEDFAVYYCQQRSNWPLTFGQGTKVEIKR
11 | 3.4 | anti-PSMA mAb, deglycosylated (MTG samples) (antibody, human IgG4 S228P, kappa, F234A L235A, V domains shown, deglycosylated with Rapid PNGase F (all N-glycans released), Human IgG4; also called anti-PSMA mAb (MTG) Deglycosylated) VH: EVQLLESGGGLVQPGGSLRLSCAASGFTFKSDAMHWVRQAPGKGLEWVSEISGSGGYTNYADSVKGRFTISRDNSKNTLYLQMNSLRAEDTAVYYCARDSYDSSLYVGDYFDYWGQGTLVTVSS VL: EIVLTQSPATLSLSPGERATLSCRASQSVSSYLAWYQQKPGQAPRLLIYDASNRATGIPARFSGSGSGTDFTLTISSLEPEDFAVYYCQQRSNWPLTFGQGTKVEIKR
12 | 4.5 | anti-PSMA mAb-DFO (site specific MTG azide clicked with DFO-DBCO) (antibody, human IgG4 S228P, kappa, F234A L235A, V domains shown, deglycosylated with PNGase F; 3-azido propylamine at Gln295 by microbial transglutaminase, clicked with unchelated DFO-DBCO; CAR 2, Human IgG4; also called anti-PSMA mAb (MTG) mAb-DFO) VH: EVQLLESGGGLVQPGGSLRLSCAASGFTFKSDAMHWVRQAPGKGLEWVSEISGSGGYTNYADSVKGRFTISRDNSKNTLYLQMNSLRAEDTAVYYCARDSYDSSLYVGDYFDYWGQGTLVTVSS VL: EIVLTQSPATLSLSPGERATLSCRASQSVSSYLAWYQQKPGQAPRLLIYDASNRATGIPARFSGSGSGTDFTLTISSLEPEDFAVYYCQQRSNWPLTFGQGTKVEIKR
